Data on 1 molecule can be found in publication doi:10.1101/2022.02.05.479199.

In series [1] the target is hRPA (human, UniProt P27694;P15927;P35244 1-616;1-270;1-121). The series is described as follows: EMSA.
In series [2] the target is hRPA;RPAIN (human;human, UniProt P27694;P15927;P35244;Q86UA6 1-616;1-270;1-121;1-219, |). The series is described as follows: EMSA.
Sequence of hRPA;RPAIN (P27694 whole entry, chain 1 of 4): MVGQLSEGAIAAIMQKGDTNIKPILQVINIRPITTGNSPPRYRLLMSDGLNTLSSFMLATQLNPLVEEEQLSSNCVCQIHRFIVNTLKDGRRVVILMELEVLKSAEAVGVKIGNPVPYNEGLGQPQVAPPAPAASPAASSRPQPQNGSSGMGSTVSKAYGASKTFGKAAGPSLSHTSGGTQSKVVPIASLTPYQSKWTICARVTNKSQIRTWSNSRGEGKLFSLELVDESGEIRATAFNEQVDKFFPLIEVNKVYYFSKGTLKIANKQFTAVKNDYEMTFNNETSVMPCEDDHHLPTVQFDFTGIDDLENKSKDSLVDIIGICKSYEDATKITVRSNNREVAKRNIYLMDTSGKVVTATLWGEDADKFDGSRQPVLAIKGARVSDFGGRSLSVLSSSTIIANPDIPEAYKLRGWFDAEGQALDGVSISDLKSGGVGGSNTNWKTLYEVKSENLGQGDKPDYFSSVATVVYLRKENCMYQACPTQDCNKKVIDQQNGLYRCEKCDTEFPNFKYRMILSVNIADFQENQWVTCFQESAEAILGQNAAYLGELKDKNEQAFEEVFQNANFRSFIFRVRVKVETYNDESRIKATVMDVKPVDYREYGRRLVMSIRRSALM
Sequence of hRPA;RPAIN (P15927 whole entry, chain 2 of 4): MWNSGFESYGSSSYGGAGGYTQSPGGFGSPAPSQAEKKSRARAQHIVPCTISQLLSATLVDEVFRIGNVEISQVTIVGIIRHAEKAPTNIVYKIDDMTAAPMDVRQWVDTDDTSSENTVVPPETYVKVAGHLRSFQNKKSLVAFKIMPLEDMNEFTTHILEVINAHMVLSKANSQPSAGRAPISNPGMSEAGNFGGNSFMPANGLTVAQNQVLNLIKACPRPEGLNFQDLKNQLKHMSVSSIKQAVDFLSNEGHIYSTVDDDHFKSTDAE
Sequence of hRPA;RPAIN (P35244 whole entry, chain 3 of 4): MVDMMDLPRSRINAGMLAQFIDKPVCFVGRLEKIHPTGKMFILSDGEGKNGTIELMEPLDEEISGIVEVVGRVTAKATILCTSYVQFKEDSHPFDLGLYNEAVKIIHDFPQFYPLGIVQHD
Sequence of hRPA;RPAIN (Q86UA6 whole entry, chain 4 of 4): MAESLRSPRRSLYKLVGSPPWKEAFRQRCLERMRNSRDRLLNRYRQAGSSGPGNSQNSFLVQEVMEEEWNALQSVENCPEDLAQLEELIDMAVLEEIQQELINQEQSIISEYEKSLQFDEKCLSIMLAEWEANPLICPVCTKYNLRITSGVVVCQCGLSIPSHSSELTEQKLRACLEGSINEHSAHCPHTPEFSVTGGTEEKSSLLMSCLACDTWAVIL

Sequence of hRPA (P27694 whole entry, chain 1 of 3): as the sequence (P27694 whole entry, chain 1 of 4) above
Sequence of hRPA (P15927 whole entry, chain 2 of 3): as the sequence (P15927 whole entry, chain 2 of 4) above
Sequence of hRPA (P35244 whole entry, chain 3 of 3): as the sequence (P35244 whole entry, chain 3 of 4) above

B1: 5'-Cy5-(dT)30 (ssDNA)
DNA: TTTTTTTTTTTTTTTTTTTTTTTTTTTTTT
What is called Kd is the free concentration of one partner at which half of the binding sites on the other are occupied at equilibrium, for simple one-to-one binding. Lower therefore signals higher affinity. For B1, the Kd stood at 10.5 nM in series [1] and 11.8 nM in series [2].
